The values that follow come from patent publication US20240417437A1 (TRUTINO BIOSCIENCES, published 2024).

Assay [1] deals with fibronectin (Sigma), coated on 96-well plates. As to the kind of experiment: plate ELISA on coated fibronectin at pH 6, OD 450-650nm. The EC50 is printed in the plot area beside the top curve (Construct EE - pH 6), the only strongly rising curve. The procedure:
A similar plate-based assay was developed to interrogate binding of IL-2 fusion variants to fibronectin. 96-well plates were coated with fibronectin (4-10 μg/mL, Sigma) or control BSA for 18-22 hours at room temperature on shaker (350 rpm). After washing, wells were blocked with 2% milk powder in PBS-0.05% Tween 20 or protein-free blocking buffer (Pierce) for 90 min, then fusion proteins were titrated in blocking buffer-0.1% Tween 20, pH 7.5 and/or pH 6, and added for 1 hour at room temperature with shaking. After washing, an anti-mouse IL-2 biotin-labelled detection antibody (JES6-5H4, ThermoFisher) or anti-human IgG HRP conjugate antibody (SouthernBiotech) was added, and binding was detected using Ultra Streptavidin HRP (ThermoFisher). The plate was developed by adding the chromogenic tetramethylbenzidine substrate (Ultra TMB, ThermoFisher). The reaction was stopped by addition of 0.5 M H₂SO₄, and the absorbance was read at 450-650 nm.
(An ELISA detects its analyte on a solid surface through an enzyme-linked reagent.)

Assay [2] deals with T1, collagen cross-linked to agarose (Sigma).
T1 construct: also called collagen-agarose; collagen-agarose beads
As to the kind of experiment: pulldown with collagen-agarose, immunoblot quantified with iBright imaging system; reference Construct B. The protocol: To test binding to collagen, a pulldown assay using agarose cross-linked to collagen (Sigma) was performed. IL-2 fusion proteins were incubated with collagen-agarose or control agarose beads for 18-22 hours at 4° C. with gentle rotation in 1% BSA/PBS-0.05% Tween 20. After washing, proteins bound to the beads were eluted by resuspending beads in SDS sample buffer (Life Technologies). […] Donkey anti-goat HRP-conjugated antibody was used for detection (Jackson Immuno Research, West Grove, PA), and the blot was developed using the SuperSignal West Femto Maximum sensitivity detection reagent (ThermoFisher) following the manufacturer's recommendations. Construct GG and Construct II were specifically bound by collagen-agarose beads, while no IL-2 fusion protein bound the control agarose beads.
(In western blotting, separated proteins are transferred to a membrane and probed.)

Chain of fibronectin (Sigma), coated on 96-well plates (P02751 32-2477): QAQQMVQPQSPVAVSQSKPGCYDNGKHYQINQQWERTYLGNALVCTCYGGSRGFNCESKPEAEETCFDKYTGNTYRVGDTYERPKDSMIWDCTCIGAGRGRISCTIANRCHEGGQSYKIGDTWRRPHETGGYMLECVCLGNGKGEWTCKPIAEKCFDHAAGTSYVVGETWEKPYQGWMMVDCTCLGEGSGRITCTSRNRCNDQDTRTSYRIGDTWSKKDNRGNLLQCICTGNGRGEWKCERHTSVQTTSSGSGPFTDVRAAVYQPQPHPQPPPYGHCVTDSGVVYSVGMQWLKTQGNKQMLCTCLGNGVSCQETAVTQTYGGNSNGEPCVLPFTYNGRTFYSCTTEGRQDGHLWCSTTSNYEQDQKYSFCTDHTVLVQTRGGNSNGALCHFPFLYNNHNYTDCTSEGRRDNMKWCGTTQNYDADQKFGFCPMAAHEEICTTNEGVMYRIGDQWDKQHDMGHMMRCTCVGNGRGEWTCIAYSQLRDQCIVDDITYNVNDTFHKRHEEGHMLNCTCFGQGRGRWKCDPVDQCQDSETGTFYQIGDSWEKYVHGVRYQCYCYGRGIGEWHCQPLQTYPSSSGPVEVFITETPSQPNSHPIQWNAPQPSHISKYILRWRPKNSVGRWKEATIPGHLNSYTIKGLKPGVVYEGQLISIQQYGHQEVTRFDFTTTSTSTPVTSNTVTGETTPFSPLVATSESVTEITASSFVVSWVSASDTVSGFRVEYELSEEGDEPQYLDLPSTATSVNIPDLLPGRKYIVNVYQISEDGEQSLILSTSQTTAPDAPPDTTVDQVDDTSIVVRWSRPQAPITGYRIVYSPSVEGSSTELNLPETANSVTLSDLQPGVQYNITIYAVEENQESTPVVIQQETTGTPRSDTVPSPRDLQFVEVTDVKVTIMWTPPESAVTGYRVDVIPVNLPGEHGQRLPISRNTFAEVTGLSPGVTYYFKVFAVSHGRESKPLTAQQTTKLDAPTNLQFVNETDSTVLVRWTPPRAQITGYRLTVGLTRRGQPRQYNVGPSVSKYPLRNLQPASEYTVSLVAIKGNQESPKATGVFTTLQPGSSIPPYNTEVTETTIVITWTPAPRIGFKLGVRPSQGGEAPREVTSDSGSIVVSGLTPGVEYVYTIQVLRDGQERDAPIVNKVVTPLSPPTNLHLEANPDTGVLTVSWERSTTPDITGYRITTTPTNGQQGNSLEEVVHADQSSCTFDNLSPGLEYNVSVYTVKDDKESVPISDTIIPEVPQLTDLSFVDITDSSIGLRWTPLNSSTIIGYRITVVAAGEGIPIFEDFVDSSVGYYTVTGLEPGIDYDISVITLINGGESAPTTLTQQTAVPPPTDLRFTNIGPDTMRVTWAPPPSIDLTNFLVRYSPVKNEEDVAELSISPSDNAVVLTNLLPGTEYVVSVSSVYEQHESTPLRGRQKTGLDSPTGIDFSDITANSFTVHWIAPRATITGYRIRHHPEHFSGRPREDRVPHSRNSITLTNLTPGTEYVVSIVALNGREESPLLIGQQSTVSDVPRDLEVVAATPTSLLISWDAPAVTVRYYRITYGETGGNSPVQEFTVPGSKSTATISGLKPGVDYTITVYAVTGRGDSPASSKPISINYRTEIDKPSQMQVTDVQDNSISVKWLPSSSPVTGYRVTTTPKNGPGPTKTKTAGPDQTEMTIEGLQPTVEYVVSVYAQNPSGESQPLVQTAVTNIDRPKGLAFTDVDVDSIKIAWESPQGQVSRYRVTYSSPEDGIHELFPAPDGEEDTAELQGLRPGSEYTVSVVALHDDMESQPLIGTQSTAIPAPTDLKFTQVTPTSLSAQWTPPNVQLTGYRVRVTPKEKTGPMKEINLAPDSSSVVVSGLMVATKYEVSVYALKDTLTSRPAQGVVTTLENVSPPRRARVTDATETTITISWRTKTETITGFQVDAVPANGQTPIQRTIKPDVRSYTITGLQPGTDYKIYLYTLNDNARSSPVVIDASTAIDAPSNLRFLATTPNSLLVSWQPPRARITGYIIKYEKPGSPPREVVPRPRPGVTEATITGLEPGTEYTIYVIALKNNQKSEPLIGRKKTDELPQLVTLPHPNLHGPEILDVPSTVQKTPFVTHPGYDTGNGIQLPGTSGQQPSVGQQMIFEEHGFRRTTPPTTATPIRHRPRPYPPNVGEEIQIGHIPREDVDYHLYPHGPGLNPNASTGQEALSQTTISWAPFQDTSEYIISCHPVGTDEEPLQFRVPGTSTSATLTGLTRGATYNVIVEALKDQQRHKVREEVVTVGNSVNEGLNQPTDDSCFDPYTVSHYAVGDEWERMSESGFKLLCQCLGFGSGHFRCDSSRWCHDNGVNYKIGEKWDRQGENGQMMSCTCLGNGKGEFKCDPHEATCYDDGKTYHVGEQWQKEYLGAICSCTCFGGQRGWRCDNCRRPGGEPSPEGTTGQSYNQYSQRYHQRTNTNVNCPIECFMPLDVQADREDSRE

B1: Construct EE (pH fibronectin): mIL2-SGG-GGWSHW(SEQ ID NO: 653)-MMPcs1-2x(G4S)-mIL2Ra(1-215)-muIgG1Fc (Fc fusion)
chain: APTSSSTSSSTAEAQQQQQQQQQQQQHLEQLLMDLQELLSRMENYRNLKLPRMLTFKFYLPKQATELKDLQCLEDELGPLRHVLDLTQSKSFQLEDAENFISNIRVTVVKLKGSDNTFECQFDDESATVVDFLRRWIAFCQSIISTSPQSGGGGWSHWGPLGVRGGGGGSGGGGSELCLYDPPEVPNATFKALSYKNGTILNCECKRGFRRLKELVYMRCLGNSWSSNCQCTSNSHDKSRKQVTAQLEHQKEQQTTTDMQKPTQSMHQENLTGHCREPPPWKHEDSKRIYHFVEGQSVHYECIPGYKALQRGPAISICKMKCGKTGWTQPQLTCVDEREHHRFLASEESQGSRNSSPESETSCPITTTDFPQPTETTAMTETFVLTMEYKGCKPCICTVPEVSSVFIFPPKPKDVLTITLTPKVTCVVVDISKDDPEVQFSWFVDDVEVHTAQTQPREEQFNSTFRSVSELPIMHQDWLNGKEFKCRVNSAAFPAPIEKTISKTKGRPKAPQVYTIPPPKEQMAKDKVSLTCMITDFFPEDITVEWQWNGQPAENYKNTQPIMDTDGSYFVYSKLNVQKSNWEAGNTFTCSVLHEGLHNHHTEKSLSHSPGK
notes: Single-chain mouse IL-2 / IL-2Ralpha / mouse IgG1 Fc fusion
One may read the EC50 as the concentration that produces a half-maximal response. A higher EC50 goes with lower potency in that assay. Consider B1, for which the half-maximal effective concentration (EC50) in assay [1] is 1.82 µM.

B2: Construct II (collagen I): mIL2-LHERHLNNN(SEQ ID NO: 665)-MMPcs1-2x(G4S)-mIL2Ra(1-215)-muIgG1Fc (Fc fusion)
chain: APTSSSTSSSTAEAQQQQQQQQQQQQHLEQLLMDLQELLSRMENYRNLKLPRMLTFKFYLPKQATELKDLQCLEDELGPLRHVLDLTQSKSFQLEDAENFISNIRVTVVKLKGSDNTFECQFDDESATVVDFLRRWIAFCQSIISTSPQSLHERHLNNNGPLGVRGGGGGSGGGGSELCLYDPPEVPNATFKALSYKNGTILNCECKRGFRRLKELVYMRCLGNSWSSNCQCTSNSHDKSRKQVTAQLEHQKEQQTTTDMQKPTQSMHQENLTGHCREPPPWKHEDSKRIYHFVEGQSVHYECIPGYKALQRGPAISICKMKCGKTGWTQPQLTCVDEREHHRFLASEESQGSRNSSPESETSCPITTTDFPQPTETTAMTETFVLTMEYKGCKPCICTVPEVSSVFIFPPKPKDVLTITLTPKVTCVVVDISKDDPEVQFSWFVDDVEVHTAQTQPREEQFNSTFRSVSELPIMHQDWLNGKEFKCRVNSAAFPAPIEKTISKTKGRPKAPQVYTIPPPKEQMAKDKVSLTCMITDFFPEDITVEWQWNGQPAENYKNTQPIMDTDGSYFVYSKLNVQKSNWEAGNTFTCSVLHEGLHNHHTEKSLSHSPGK
On to B2, for which, in assay [2], the “fold of bound fraction over Construct B” value came to 1.4 fold.
